Test results published in the RNAGym collection of RNA variant scans (doi:10.7554/elife.80360).

B1: Hairpin Ribozyme (parent)
chain: GUCCUCUUUCACGUGCGCGUGAAAGAGAGAAGUGAACCAGAGAAACACACGUUGUGGUAUAUUACCUGGUA

Variants of: B1
Assay: self-cleavage, relative activity (ratio to wild type); higher = more cleavage; co-transcriptional

Row | Variant | self-cleavage
1 | U8C U9G | 0.374
2 | U7C U60G | 0.621
3 | U7C U60A | 0.737
4 | U8A A71G | 0.699
5 | U8G A47C | 0.266
6 | U8G G57A | 0.102
7 | U8G G57C | 0.192
8 | U8G G29U | 0.112
9 | U8G G29A | 0.154
10 | U8A U52C | 0.647
11 | U8C A59U | 0.116
12 | U7G C50G | 0.143
13 | U8C | 0.739
14 | U8G | 0.764
15 | U8A | 0.745
16 | U8A A47U | 0.16
17 | U8A A47C | 0.295
18 | U8C G56C | 0.12
19 | U7G A30G | 0.081
20 | U7C A44U | 0.106
21 | U8C U55G | 0.101
22 | U8A U63C | 0.218
23 | U8A U9A | 0.793
24 | U8A U9G | 0.791

Row | Variant | self-cleavage
25 | U7A U67G | 0.282
26 | U7A U67A | 0.223
27 | U8G G51U | 0.886
28 | U8C A28G | 1.07
29 | U7G G29A | 0.22
30 | U7G G29C | 0.134
31 | U8A G15A | 0.826
32 | U8A C18A | 0.872
33 | U7C U14G | 0.723
34 | U7C U14C | 0.925
35 | U8G G32U | 0.0934
36 | U8G G32C | 0.12
37 | U8G A30G | 0.119
38 | U8G A30C | 0.141
39 | U7C G32U | 0.261
40 | U8A A30C | 0.172
41 | U8A U62A | 0.105
42 | U7C A71G | 1.13
43 | U7C A71C | 1.35
44 | U7G C66U | 0.355
45 | U8G C18G | 0.518
46 | U8A G32C | 0.111
47 | U7G U52C | 0.961
48 | U7G U52A | 0.734

Row | Variant | self-cleavage
49 | U7G G17A | 0.849
50 | U7G G17C | 0.612
51 | U7G G17U | 1.04
52 | U7G G13C | 0.618
53 | U8A G34U | 1.05
54 | U8A G34C | 0.902
55 | U8A A22G | 0.644
56 | U7C C12U | 0.89
57 | U7A U70G | 0.921
58 | U7A U70A | 0.766
59 | U8A U58A | 0.561
60 | U8A U58C | 0.913
61 | U8A U58G | 0.515
62 | U7G C48U | 0.114
63 | U8G C38G | 0.268
64 | U7G A23U | 0.883
65 | U8A G57A | 0.196
66 | U8A G57U | 0.267
67 | U8A G57C | 0.0778
68 | U8A A64G | 0.503
69 | U7G U8G | 0.768
70 | U8G A22U | 0.582
71 | U7C G25C | 0.251
72 | U7C A41U | 0.98

Row | Variant | self-cleavage
73 | U7C U9G | 0.35
74 | U7C U9C | 0.673
75 | U8G U70C | 0.675
76 | U8G U70G | 0.608
77 | U8A G21U | 0.691
78 | U7C G21A | 0.618
79 | U8G C37G | 0.191
80 | U8G C37U | 0.487
81 | U8C U70G | 0.35
82 | U8C G15U | 0.932
83 | U8C G15C | 0.565
84 | U8C G27A | 0.443
85 | U8C G27C | 0.152
86 | U8G G34U | 1.28
87 | U7C G68C | 0.302
88 | U7G A64G | 0.461
89 | U8A A39G | 0.279
90 | U8A A39U | 0.334
91 | U7C C65G | 0.357
92 | U7G A71U | 0.746
93 | U8G A64G | 0.476
94 | U8C G25C | 0.148
95 | U8C G25A | 0.197
96 | U8C C18G | 0.528

Row | Variant | self-cleavage
97 | U8G U33G | 0.111
98 | U7G A26U | 0.384
99 | U7C G69A | 0.289
100 | U8C C46U | 0.172
101 | U7C C37G | 0.273
102 | U7C C37A | 0.37
103 | U8G A35C | 0.715
104 | U8C A26U | 0.336
105 | U7G G54U | 0.619
106 | U7G G54A | 0.642
107 | U8G G27C | 0.139
108 | U8G G27A | 0.43
109 | U8C C65G | 0.143
110 | U7C G51A | 0.69
111 | U7A U62A | 0.177
112 | U7G A44U | 0.139
113 | U7G G68U | 0.269
114 | U9A A26U | 0.424
115 | U9A A26C | 0.364
116 | U9A A35G | 0.744
117 | U7C C10A | 0.815
118 | U7C C10U | 0.9
119 | U8G C66G | 0.162
120 | U8G C66A | 0.169

Row | Variant | self-cleavage
121 | U7G A24G | 0.697
122 | U7C U33A | 0.068
123 | U7G G57C | 0.206
124 | U7C G15A | 0.753
125 | U7C A43C | 0.0702
126 | U7C A26U | 0.176
127 | U7C A11U | 0.294
128 | U7C A11G | 0.684
129 | U9A A22C | 0.773
130 | U9A A22G | 0.605
131 | U9A A24U | 0.466
132 | U9A A24C | 0.514
133 | U8C U33G | 0.36
134 | U8C U33C | 0.214
135 | U7G U58G | 0.645
136 | U7G U58A | 0.655
137 | U8C A47C | 0.131
138 | U7C A61C | 0.11
139 | U8G G17U | 0.651
140 | U8C G29C | 0.0996
141 | U7C A64G | 0.458
142 | U7C A64C | 0.26
143 | U8G A36U | 0.557
144 | U8A A11C | 0.393

Row | Variant | self-cleavage
145 | U7G A28G | 1.06
146 | U7G A28C | 0.329
147 | U8C A36G | 0.928
148 | U7C C48U | 0.279
149 | U8G U9A | 0.734
150 | U8A U53C | 0.778
151 | U8C G54C | 0.346
152 | U8C G17A | 0.632
153 | U8C A35G | 0.385
154 | U7G U63A | 0.179
155 | U7G U63G | 0.145
156 | U8A G68A | 0.179
157 | U9A A28G | 0.748
158 | U9A A28C | 0.266
159 | U8A A41G | 0.615
160 | U7C U52A | 0.82
161 | U8A A61C | 0.165
162 | U8A G19U | 0.661
163 | U7C U58G | 0.815
164 | U7G A43C | 0.138
165 | U8G U58C | 0.725
166 | U8A U33A | 0.0975
167 | U8A U33G | 0.0531
